US20090232811A1

Target: recombinant human ANGPT2 (full-length ANGPT2-His protein, R&D Systems) (human) (UniProt O15123)
Assay: cellular FACS IGF-1R-ANGPT2 bridging assay on I24 cells with purified Bispecific VL-VH/CL-CH1 exchange mix and 2 µg/mL hANGPT2; isotype control in place of <Ang-2>mIgG1-Biotin, SA-PE (FL2-H)

Sequence of UniProt O15123 (O15123 19-496 limits assumed): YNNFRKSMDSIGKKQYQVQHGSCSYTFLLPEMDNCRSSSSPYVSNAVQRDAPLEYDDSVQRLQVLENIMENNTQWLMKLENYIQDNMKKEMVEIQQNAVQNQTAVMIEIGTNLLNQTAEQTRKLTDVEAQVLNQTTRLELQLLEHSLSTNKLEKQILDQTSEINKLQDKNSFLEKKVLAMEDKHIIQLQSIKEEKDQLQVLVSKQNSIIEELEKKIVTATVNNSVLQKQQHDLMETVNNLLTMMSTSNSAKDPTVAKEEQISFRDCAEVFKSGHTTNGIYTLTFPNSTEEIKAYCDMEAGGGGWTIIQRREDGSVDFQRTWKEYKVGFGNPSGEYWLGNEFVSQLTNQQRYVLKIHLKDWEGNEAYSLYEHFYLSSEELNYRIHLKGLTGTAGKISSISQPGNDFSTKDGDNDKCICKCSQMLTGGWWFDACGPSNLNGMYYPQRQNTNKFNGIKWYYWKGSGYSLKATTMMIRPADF

Mean: 8.7
Substance: mIgG1-Biotin-Isotype control (antibody)
